B1: Protein X (Hepatitis B virus genotype D subtype ayw (isolate France/Tiollais/1979)), P03165 (parent)
chain: MAARLCCQLDPARDVLCLRPVGAESRGRPFSGSLGTLSSPSPSAVPTDHGAHLSLRGLPVCAFSSAGPCALRFTSARRMETTVNAHQILPKVLHKRTLGLSAMSTTDLEAYFKDCLFKDWEELGEEIRLKVFVLGGCRHKLVCAPAPCNFFTSA

In the test the parent is B1. As to conditions: with akt1_human AKT1, P31749.
Chain of akt1_human AKT1, P31749 (P31749 whole entry): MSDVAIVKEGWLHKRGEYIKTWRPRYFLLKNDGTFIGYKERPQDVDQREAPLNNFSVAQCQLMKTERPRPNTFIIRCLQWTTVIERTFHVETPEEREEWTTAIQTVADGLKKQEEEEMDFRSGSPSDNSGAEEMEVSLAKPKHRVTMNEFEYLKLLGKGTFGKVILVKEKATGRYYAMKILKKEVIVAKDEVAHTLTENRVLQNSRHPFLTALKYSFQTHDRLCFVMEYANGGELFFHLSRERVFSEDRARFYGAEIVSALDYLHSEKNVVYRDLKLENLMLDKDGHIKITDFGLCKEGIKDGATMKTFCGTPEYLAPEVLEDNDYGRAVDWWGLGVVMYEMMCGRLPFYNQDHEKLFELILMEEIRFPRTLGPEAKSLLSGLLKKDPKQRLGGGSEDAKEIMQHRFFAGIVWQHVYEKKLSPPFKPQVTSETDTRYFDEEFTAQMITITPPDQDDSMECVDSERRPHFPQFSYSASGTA
Regarding S31A, the “effect of a mutation on the interaction” value was “disrupting interaction”.
